Numbering of substitutions follows the chain as printed.
B1: PMX181 (monospecific anti-canine CD3, canine IgG-B effector function deficient Fc) (antibody, V domains shown)
VH: ELTLQESGPGLVKPSQTLSLTCIVSGGSVTNNYYWTWIRQRPGRGLEWMGYWTGFTNYNPAFQGRISIIANTAKKQLSLQLSSLTTEDTAVYYCARRAIPTYFDYWGQGTLVTVSS
VL: SYVLTQLPSKNVTLKQPAHITCGGDNIGSRSVHWYQQKLGQAPVLIIYYDSSRPTGIPERFSGANSGNTATLTISGALAEDEADYYCQVWDSSASVFGGGTHLTVL
B2: PMX182 (monospecific anti-canine CD3, canine IgG-B effector function deficient Fc) (antibody)
heavy: EVQLVESGGDLVKPGGSLRLSCVTSGFTFSNYHMNWVRQAPGKGLQWVAYINSGGSSTSYADAVKGRFTISRDNAKNTLYLQMNSLRAEDTAMYYCASDWDYCADDTCEGMGYWGHGTSLFVSSASTTAPSVFPLAPSCGSTSGSTVALACLVSGYFPEPVTVSWNSGSLTSGVHTFPSVLQSSGLYSLSSMVTVPSSRWPSETFTCNVAHPASKTKVDKPVPKRENGRVPRPPDCPKCPAPESLGGPSVFIFPPKPKDTLLIARTPEVTCVVVDLGREDPEVQISWFVDGKQMQTAKTQPREEQFNGTYRVVSVLPIGHQDWLKGKQFTCKVNHIGLPSPIERTISKARGQAHQPSVYVLPPSREELSKNTVSLTCLIKDFFPPDIDVEWQSNGQQEPESKYRTTPPQLDEDGSYFLYSKLSVDKSRWQRGDTFICAVMHEALHNHYTQKSLSHSPGK
VL: SYVLTQLPSKNVTLKQPAHITCGGDNIGSKSVHWYQQKLGQAPVLIIYYDSSRPTGIPERFSGANSGNTATLTISGALAEDEADYYCQVWDSSAKAWVFGEGTQLTVL
B3: PMX183 (monospecific anti-canine CD3, canine IgG-B effector function deficient Fc) (antibody, V domains shown)
VH: ELTLQESGPGLVKPSQTLSLTCVVSGGSVTNSYYWNWIRQRPGRELEWMGYWTGGTKYNPAFQGRISISADTAKNQFSLQLTSMTTEDTAVYYCARDRDRRVPHAYGYWGQGTLVTVSS
VL: B2 VL with W97S, E101G, Q104H
B4: PMX193 (monospecific anti-canine CD3, canine IgG-B effector function deficient Fc) (antibody, V domains shown)
VH: EVQLVESGGDLVKPGGSLRLSCVASGFTFSTYHMSWVRQAPGKGLQWVAYISSGGSRTNYADAVKGRFTISRDNAKNTLYLQMNSLRAEDAAVFYCARHYGSSLFDYWGQGTLVTVSS
VL: DIVMTQTPLSLSVSPGEPASISCKASQSLLHINGNTYLYWFRQKPGQSPQRLIYKVSNRDPGVPDRFSGSGSGTDFTLRISRVEADDAGVYYCGQGIQDPTFGKGTHLEIK
B5: PMX194 (monospecific anti-canine CD3, canine IgG-B effector function deficient Fc) (antibody, V domains shown)
VH: EVQLVESGGDLVKPGGSLRLSCVASGFTFSNYHMSWVRQAPGKGLQWVAYSNSGRMSTDYADAVKGRFTISRDNAKNTLYLQMNSLRPEDTAVYYCATVIYGLFDYWGQGTLVTVSS
VL: DIVMTQTPLSLSVSPGEPASISCKASQSLLYSNGNTYLYWFRQKPGQSPQRLIYKVSKRDSGVPDRFSGSGSGTDFTLRIRRVEADDAGVYYCGQGTQDPYTFSQGTKLEIK
B6: PMX195 (monospecific anti-canine CD3, canine IgG-B effector function deficient Fc) (antibody, V domains shown)
VH: EVQLVESGGDLVKPAGSLRLSCMASGFTFSSYSMSWVRQAPEKGLQLVAGINGDGSTTYYTDAVKGRFTISRDNAKNTVYLQMNNLRVEDSAMYYCAKGAGTGDYWGQGTLVTVSS
VL: SYELTQPPSLNVTLRETAHITCGGDRIGSRYVQWIQQNPGQAPVVVIYKDSNRPTGIPERFSGANSGNTATLTISGALAEDEADYYCQVGDSGNWVFGGGTQLTVL
B7: PMX184 (monospecific anti-canine CD3, canine IgG-B effector function deficient Fc) (antibody, V domains shown)
VH: ELTLQESGPGLVKPSQTLSLTCGVSGGSVTRSHYWNWVRQRPGRGLEWMGYWTGSTNYNPAFQGRISITADTAKNQFSLQLRSMTTEDTAVYFCARETTIPTFFFDYWGQGTLVTVSS
VL: B2 VL with S93G
B8: PMX196 (monospecific anti-canine CD3, canine IgG-B effector function deficient Fc) (antibody, V domains shown)
VH: ELTLQESGPGLVKPSQTLSLTCVVSGGSVTSSYYWNWIRQRPGRGLEWMGYWTGSTIYNPAFQGRISITADTAKNQFSLQLSSMTTEDTAVYFCVRERRMAFGSWGQGTLVIVSS
VL: B2 VL with N11S, S29R, Y48S, Y49F, S51N, S52N, W97S, E101G, Q104H
B9: PMX197 (monospecific anti-canine CD3, canine IgG-B effector function deficient Fc) (antibody, V domains shown)
VH: ELTLQESGPGLVKPSQTLSLTCLVSGGSVTRSYYWNWIRQRPGRGLEWMGYWTGSTNYNPAFQGRISIIPDTAKNQFSLQLTSMTTDDTAIYFCAREGGRTLGAFADWGQGTLVTVSS
VL: B2 VL with N26K, S31N, W97S, E101G, Q104H
B10: PMX198 (monospecific anti-canine CD3, canine IgG-B effector function deficient Fc) (antibody, V domains shown)
VH: EFTLQESGPGLVKPSQTLSLTCIVSGGSVTSSYYWNWIRQRPGRGLEWMGYWTGSTNYNPAFQGRISITPDTAKNQFSLQLSSMTTEDTAVYYCAREGGSSLQAFGNWGQGTLVTVSS
VL: B2 VL with S29R, V44I, W97S, E101G, Q104H
B11: PMX185 (monospecific anti-canine CD3, canine IgG-B effector function deficient Fc) (antibody)
heavy: EVQLVESGGDLVKPGGSLRLSCVASGFTFSSYHMSWVRQAPGKGLQWVASINSGGSRTSYVDAVKGRFTISRDNAKKTLYLQMNSLRAEDTAVYYCASGRTGPKLGLGDYGMDSWGHGTSLFVSSASTTAPSVFPLAPSCGSTSGSTVALACLVSGYFPEPVTVSWNSGSLTSGVHTFPSVLQSSGLYSLSSMVTVPSSRWPSETFTCNVAHPASKTKVDKPVPKRENGRVPRPPDCPKCPAPESLGGPSVFIFPPKPKDTLLIARTPEVTCVVVDLGREDPEVQISWFVDGKQMQTAKTQPREEQFNGTYRVVSVLPIGHQDWLKGKQFTCKVNHIGLPSPIERTISKARGQAHQPSVYVLPPSREELSKNTVSLTCLIKDFFPPDIDVEWQSNGQQEPESKYRTTPPQLDEDGSYFLYSKLSVDKSRWQRGDTFICAVMHEALHNHYTQKSLSHSPGK
VL: B2 VL with L45M

Molecular target: canine CD3 on canine T cells (canine PBMC) (canine, UniProt P27597 22-202)
Test: cell-based or functional assay

Sequence of canine CD3 on canine T cells (canine PBMC) (P27597 22-202 limits assumed, chain 1 of 3): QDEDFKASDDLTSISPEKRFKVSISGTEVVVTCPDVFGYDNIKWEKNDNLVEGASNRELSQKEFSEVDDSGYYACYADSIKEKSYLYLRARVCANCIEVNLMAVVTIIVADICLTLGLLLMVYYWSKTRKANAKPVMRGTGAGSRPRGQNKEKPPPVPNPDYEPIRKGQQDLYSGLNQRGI
Sequence of canine CD3 on canine T cells (canine PBMC) (chain, as listed by the source limits assumed, chain 2 of 3): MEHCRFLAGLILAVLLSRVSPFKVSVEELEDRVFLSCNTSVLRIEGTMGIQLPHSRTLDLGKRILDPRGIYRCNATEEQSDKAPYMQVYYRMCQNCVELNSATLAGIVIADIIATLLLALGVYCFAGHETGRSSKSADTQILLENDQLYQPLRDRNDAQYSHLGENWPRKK
Sequence of canine CD3 on canine T cells (canine PBMC) (chain, as listed by the source limits assumed, chain 3 of 3): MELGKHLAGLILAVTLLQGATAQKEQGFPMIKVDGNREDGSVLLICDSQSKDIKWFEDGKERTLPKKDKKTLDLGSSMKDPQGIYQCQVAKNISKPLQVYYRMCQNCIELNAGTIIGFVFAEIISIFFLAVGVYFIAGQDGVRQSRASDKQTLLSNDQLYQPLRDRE

Binder | CD25 Activation, Day 6, IS | CD25 Activation, Day 6, PB | CD25 Activation, Day 9, IS | CD25 Activation, Day 9, PB | IFNy Concentration pg/ml, Day 6, IS [pg/mL] | IFNy Concentration pg/ml, Day 9, IS [pg/mL] | IFNy Concentration pg/ml, Day 9, PB [pg/mL] | Ki67 Proliferation, Day 6, IS | Ki67 Proliferation, Day 6, PB | Ki67 Proliferation, Day 9, IS | Ki67 Proliferation, Day 9, PB
B1 | 10.6 | 5.68 | 9.09 | 23.9 | 33.1 | 118 | 1690 | 2.15 | 0.55 | 2.69 | 0.7
B2 | 7.88 | 5.89 | 14.6 | 21.4 | 50.2 | 1340 | 1470 | 2.01 | 0.7 | 1.72 | 1.55
B3 | 13.3 | 13.6 | 10.1 | 13.3 | 63.7 | 153 | 145 | 1.61 | 0.36 | 1.99 | 0.48
B4 | 8.3 | 11.1 | 12.6 | 16.1 | 52.6 | 544 | 401 | 0.64 | 0.11 | 1.53 | 0.18
B5 | 13 | 17.3 | 7.96 | 17.1 | 133 | 170 | 568 | 1.46 | 0.21 | 1.49 | 1.11
B6 | 10.4 | 16.8 | 7.58 | 14.7 | 63.9 | 208 | 627 | 2.94 | 0.43 | 2.33 | 0.67
B7 | 10.4 | 28.8 | 12.3 | 28.2 | 74.8 | 322 | 3290 | 2.42 | 1.47 | 1.64 | 0.75
B8 | 10.4 | 23 | 6.6 | 17.1 | 34.8 | 160 | 2080 | 0.92 | 1.41 | 0.94 | 0
B9 | 10.5 | 23.3 | 9.24 | 14 | 58 | 307 | 2340 | 1.43 | 0.67 | 3.21 | 0
B10 | 11.3 | 26.8 | 10.4 | 25.5 | 82.8 | 191 | 2790 | 0.87 | 0.61 | 4.37 | 0
B11 | 14.7 | 11.9 | 10.3 | 13.9 | 86.7 | 217 | 166 | 0.93 | 0.85 | 2.65 | 0.39

— patent US20240209086A1 (PETMEDIX, published 2024)
